# Reference: patent US20110195911A1, “SYNTHETIC ANALOGS OF THE JUXTAMEMBRANE DOMAIN OF IGF1R AND USES THEREOF” (THE UNITED STATES OF AMERICA,AS REPRESENTED BY THE …, priority 2008, published 2011)
# The star is where a group is joined. Palmitoyl = CCCCCCCCCCCCCCCC(=O)*
# Target: Insulin-like growth factor 1 receptor (IGF1R) (UniProt P08069 31-1367, limits assumed)
# Assay: cell-based or functional assay
# Chain of Insulin-like growth factor 1 receptor (IGF1R) (P08069 31-1367 limits assumed): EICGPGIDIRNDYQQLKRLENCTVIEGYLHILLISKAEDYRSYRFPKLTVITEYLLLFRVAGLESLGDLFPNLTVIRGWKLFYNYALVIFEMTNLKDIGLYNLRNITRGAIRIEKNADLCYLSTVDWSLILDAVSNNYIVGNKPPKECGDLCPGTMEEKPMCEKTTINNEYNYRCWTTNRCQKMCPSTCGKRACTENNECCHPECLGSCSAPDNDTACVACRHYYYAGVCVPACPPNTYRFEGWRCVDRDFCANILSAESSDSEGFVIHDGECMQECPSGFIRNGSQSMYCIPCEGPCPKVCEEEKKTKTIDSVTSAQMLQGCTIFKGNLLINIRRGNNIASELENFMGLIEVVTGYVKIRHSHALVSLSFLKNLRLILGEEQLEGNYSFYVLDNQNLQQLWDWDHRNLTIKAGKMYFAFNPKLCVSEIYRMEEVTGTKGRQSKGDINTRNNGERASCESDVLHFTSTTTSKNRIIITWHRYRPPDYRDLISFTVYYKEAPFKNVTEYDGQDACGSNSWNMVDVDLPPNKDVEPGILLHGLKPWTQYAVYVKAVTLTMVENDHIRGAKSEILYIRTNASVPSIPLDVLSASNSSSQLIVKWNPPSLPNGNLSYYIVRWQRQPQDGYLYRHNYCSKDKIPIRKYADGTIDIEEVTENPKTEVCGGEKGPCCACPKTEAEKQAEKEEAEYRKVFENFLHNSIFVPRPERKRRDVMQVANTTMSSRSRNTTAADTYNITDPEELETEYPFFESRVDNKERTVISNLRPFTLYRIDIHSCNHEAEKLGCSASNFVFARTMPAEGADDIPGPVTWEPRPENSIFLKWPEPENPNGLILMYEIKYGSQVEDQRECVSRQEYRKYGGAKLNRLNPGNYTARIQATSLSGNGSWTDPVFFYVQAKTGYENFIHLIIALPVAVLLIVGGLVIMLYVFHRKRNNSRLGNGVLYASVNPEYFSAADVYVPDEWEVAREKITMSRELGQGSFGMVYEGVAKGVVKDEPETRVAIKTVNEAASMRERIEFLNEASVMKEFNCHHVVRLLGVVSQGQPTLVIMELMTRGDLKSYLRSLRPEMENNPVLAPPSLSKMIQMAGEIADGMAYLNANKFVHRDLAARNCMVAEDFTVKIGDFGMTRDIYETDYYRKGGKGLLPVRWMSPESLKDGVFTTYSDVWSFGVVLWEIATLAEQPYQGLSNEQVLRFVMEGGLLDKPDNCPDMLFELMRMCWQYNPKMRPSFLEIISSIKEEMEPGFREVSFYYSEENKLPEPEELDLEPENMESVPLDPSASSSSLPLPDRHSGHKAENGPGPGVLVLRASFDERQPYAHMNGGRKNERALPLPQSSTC
Binder,"GI50 (µM), MTT assay, MCF-7 cells [µM]","TGI (µM), MTT assay, MCF-7 cells [µM]"
Palmitoyl-HRKRNNSRLGNG-NH2 (SMILES CCCCCCCCCCCCCCCC(=O)N[C@@H](Cc1c[nH]cn1)C(=O)N[C@@H](CCCNC(=N)N)C(=O)N[C@@H](CCCCN)C(=O)N[C@@H](CCCNC(=N)N)C(=O)N[C@@H](CC(N)=O)C(=O)N[C@@H](CC(N)=O)C(=O)N[C@@H](CO)C(=O)N[C@@H](CCCNC(=N)N)C(=O)N[C@@H](CC(C)C)C(=O)NCC(=O)N[C@@H](CC(N)=O)C(=O)NCC(N)=O) [peptide 1 (Pal-HRKRNNSRLGNG-NH2)],1.8,> 5
Palmitoyl-HRKRNNSRLGNGVLYASV-NH2 (SMILES CCCCCCCCCCCCCCCC(=O)N[C@@H](Cc1c[nH]cn1)C(=O)N[C@@H](CCCNC(=N)N)C(=O)N[C@@H](CCCCN)C(=O)N[C@@H](CCCNC(=N)N)C(=O)N[C@@H](CC(N)=O)C(=O)N[C@@H](CC(N)=O)C(=O)N[C@@H](CO)C(=O)N[C@@H](CCCNC(=N)N)C(=O)N[C@@H](CC(C)C)C(=O)NCC(=O)N[C@@H](CC(N)=O)C(=O)NCC(=O)N[C@H](C(=O)N[C@@H](CC(C)C)C(=O)N[C@@H](Cc1ccc(O)cc1)C(=O)N[C@@H](C)C(=O)N[C@@H](CO)C(=O)N[C@H](C(N)=O)C(C)C)C(C)C) [peptide 5 (Pal-HRKRNNSRLGNGVLYASV-NH2)],0.45,1.45
Palmitoyl-VHRKRNNSRLGNGVLYASV-NH2 (SMILES CCCCCCCCCCCCCCCC(=O)N[C@H](C(=O)N[C@@H](Cc1c[nH]cn1)C(=O)N[C@@H](CCCNC(=N)N)C(=O)N[C@@H](CCCCN)C(=O)N[C@@H](CCCNC(=N)N)C(=O)N[C@@H](CC(N)=O)C(=O)N[C@@H](CC(N)=O)C(=O)N[C@@H](CO)C(=O)N[C@@H](CCCNC(=N)N)C(=O)N[C@@H](CC(C)C)C(=O)NCC(=O)N[C@@H](CC(N)=O)C(=O)NCC(=O)N[C@H](C(=O)N[C@@H](CC(C)C)C(=O)N[C@@H](Cc1ccc(O)cc1)C(=O)N[C@@H](C)C(=O)N[C@@H](CO)C(=O)N[C@H](C(N)=O)C(C)C)C(C)C)C(C)C) [peptide 6 (Pal-VHRKRNNSRLGNGVLYASV-NH2)],0.25,1.05
Palmitoyl-HRKRNNSRLGNGVLYAS-NH2 (SMILES CCCCCCCCCCCCCCCC(=O)N[C@@H](Cc1c[nH]cn1)C(=O)N[C@@H](CCCNC(=N)N)C(=O)N[C@@H](CCCCN)C(=O)N[C@@H](CCCNC(=N)N)C(=O)N[C@@H](CC(N)=O)C(=O)N[C@@H](CC(N)=O)C(=O)N[C@@H](CO)C(=O)N[C@@H](CCCNC(=N)N)C(=O)N[C@@H](CC(C)C)C(=O)NCC(=O)N[C@@H](CC(N)=O)C(=O)NCC(=O)N[C@H](C(=O)N[C@@H](CC(C)C)C(=O)N[C@@H](Cc1ccc(O)cc1)C(=O)N[C@@H](C)C(=O)N[C@@H](CO)C(N)=O)C(C)C) [peptide 7 (Pal-HRKRNNSRLGNGVLYAS-NH2)],1.45,4.1
Palmitoyl-HRKRNNSRLGNGVLYA-NH2 (SMILES CCCCCCCCCCCCCCCC(=O)N[C@@H](Cc1c[nH]cn1)C(=O)N[C@@H](CCCNC(=N)N)C(=O)N[C@@H](CCCCN)C(=O)N[C@@H](CCCNC(=N)N)C(=O)N[C@@H](CC(N)=O)C(=O)N[C@@H](CC(N)=O)C(=O)N[C@@H](CO)C(=O)N[C@@H](CCCNC(=N)N)C(=O)N[C@@H](CC(C)C)C(=O)NCC(=O)N[C@@H](CC(N)=O)C(=O)NCC(=O)N[C@H](C(=O)N[C@@H](CC(C)C)C(=O)N[C@@H](Cc1ccc(O)cc1)C(=O)N[C@@H](C)C(N)=O)C(C)C) [peptide 8 (Pal-HRKRNNSRLGNGVLYA-NH2)],1.4,> 5
Palmitoyl-HRKRNNSRLG-NH2 (SMILES CCCCCCCCCCCCCCCC(=O)N[C@@H](Cc1c[nH]cn1)C(=O)N[C@@H](CCCNC(=N)N)C(=O)N[C@@H](CCCCN)C(=O)N[C@@H](CCCNC(=N)N)C(=O)N[C@@H](CC(N)=O)C(=O)N[C@@H](CC(N)=O)C(=O)N[C@@H](CO)C(=O)N[C@@H](CCCNC(=N)N)C(=O)N[C@@H](CC(C)C)C(=O)NCC(N)=O) [peptide 2 (Pal-HRKRNNSRLG-NH2)],1.3,> 5

# Continued, values first:
"GI50 (µM), MTT assay, MCF-7 cells [µM]","TGI (µM), MTT assay, MCF-7 cells [µM]",Binder
0.1,> 5,Palmitoyl-HRKRNNSRLGNGVLYASVNP-NH2 (SMILES CCCCCCCCCCCCCCCC(=O)N[C@@H](Cc1c[nH]cn1)C(=O)N[C@@H](CCCNC(=N)N)C(=O)N[C@@H](CCCCN)C(=O)N[C@@H](CCCNC(=N)N)C(=O)N[C@@H](CC(N)=O)C(=O)N[C@@H](CC(N)=O)C(=O)N[C@@H](CO)C(=O)N[C@@H](CCCNC(=N)N)C(=O)N[C@@H](CC(C)C)C(=O)NCC(=O)N[C@@H](CC(N)=O)C(=O)NCC(=O)N[C@H](C(=O)N[C@@H](CC(C)C)C(=O)N[C@@H](Cc1ccc(O)cc1)C(=O)N[C@@H](C)C(=O)N[C@@H](CO)C(=O)N[C@H](C(=O)N[C@@H](CC(N)=O)C(=O)N1CCC[C@H]1C(N)=O)C(C)C)C(C)C) [peptide 23 (Pal-HRKRNNSRLGNGVLYASVNP-NH2)]
1.65,> 5,Palmitoyl-HRKRNNSRLGNGVLY-NH2 (SMILES CCCCCCCCCCCCCCCC(=O)N[C@@H](Cc1c[nH]cn1)C(=O)N[C@@H](CCCNC(=N)N)C(=O)N[C@@H](CCCCN)C(=O)N[C@@H](CCCNC(=N)N)C(=O)N[C@@H](CC(N)=O)C(=O)N[C@@H](CC(N)=O)C(=O)N[C@@H](CO)C(=O)N[C@@H](CCCNC(=N)N)C(=O)N[C@@H](CC(C)C)C(=O)NCC(=O)N[C@@H](CC(N)=O)C(=O)NCC(=O)N[C@H](C(=O)N[C@@H](CC(C)C)C(=O)N[C@@H](Cc1ccc(O)cc1)C(N)=O)C(C)C) [peptide 9 (Pal-HRKRNNSRLGNGVLY-NH2)]
1.8,> 5,Palmitoyl-HRKRNNSRLGNGVL-NH2 (SMILES CCCCCCCCCCCCCCCC(=O)N[C@@H](Cc1c[nH]cn1)C(=O)N[C@@H](CCCNC(=N)N)C(=O)N[C@@H](CCCCN)C(=O)N[C@@H](CCCNC(=N)N)C(=O)N[C@@H](CC(N)=O)C(=O)N[C@@H](CC(N)=O)C(=O)N[C@@H](CO)C(=O)N[C@@H](CCCNC(=N)N)C(=O)N[C@@H](CC(C)C)C(=O)NCC(=O)N[C@@H](CC(N)=O)C(=O)NCC(=O)N[C@H](C(=O)N[C@@H](CC(C)C)C(N)=O)C(C)C) [peptide 10 (Pal-HRKRNNSRLGNGVL-NH2)]
2.5,> 5,Palmitoyl-HRKRNNSRLGNGV-NH2 (SMILES CCCCCCCCCCCCCCCC(=O)N[C@@H](Cc1c[nH]cn1)C(=O)N[C@@H](CCCNC(=N)N)C(=O)N[C@@H](CCCCN)C(=O)N[C@@H](CCCNC(=N)N)C(=O)N[C@@H](CC(N)=O)C(=O)N[C@@H](CC(N)=O)C(=O)N[C@@H](CO)C(=O)N[C@@H](CCCNC(=N)N)C(=O)N[C@@H](CC(C)C)C(=O)NCC(=O)N[C@@H](CC(N)=O)C(=O)NCC(=O)N[C@H](C(N)=O)C(C)C) [peptide 11 (Pal-HRKRNNSRLGNGV-NH2)]
0.1,1.1,Palmitoyl-VFHRKRNNSRLGNGVLYASVN-NH2 (SMILES CCCCCCCCCCCCCCCC(=O)N[C@H](C(=O)N[C@@H](Cc1ccccc1)C(=O)N[C@@H](Cc1c[nH]cn1)C(=O)N[C@@H](CCCNC(=N)N)C(=O)N[C@@H](CCCCN)C(=O)N[C@@H](CCCNC(=N)N)C(=O)N[C@@H](CC(N)=O)C(=O)N[C@@H](CC(N)=O)C(=O)N[C@@H](CO)C(=O)N[C@@H](CCCNC(=N)N)C(=O)N[C@@H](CC(C)C)C(=O)NCC(=O)N[C@@H](CC(N)=O)C(=O)NCC(=O)N[C@H](C(=O)N[C@@H](CC(C)C)C(=O)N[C@@H](Cc1ccc(O)cc1)C(=O)N[C@@H](C)C(=O)N[C@@H](CO)C(=O)N[C@H](C(=O)N[C@@H](CC(N)=O)C(N)=O)C(C)C)C(C)C)C(C)C) [peptide 24 (Pal-VFHRKRNNSRLGNGVLYASVN-NH2)]
1.2,2.7,Palmitoyl-RKRNNSRLGNGVLYASVN-NH2 (SMILES CCCCCCCCCCCCCCCC(=O)N[C@@H](CCCNC(=N)N)C(=O)N[C@@H](CCCCN)C(=O)N[C@@H](CCCNC(=N)N)C(=O)N[C@@H](CC(N)=O)C(=O)N[C@@H](CC(N)=O)C(=O)N[C@@H](CO)C(=O)N[C@@H](CCCNC(=N)N)C(=O)N[C@@H](CC(C)C)C(=O)NCC(=O)N[C@@H](CC(N)=O)C(=O)NCC(=O)N[C@H](C(=O)N[C@@H](CC(C)C)C(=O)N[C@@H](Cc1ccc(O)cc1)C(=O)N[C@@H](C)C(=O)N[C@@H](CO)C(=O)N[C@H](C(=O)N[C@@H](CC(N)=O)C(N)=O)C(C)C)C(C)C) [peptide 12 (Pal-RKRNNSRLGNGVLYASVN-NH2)]
0.08,0.5,Palmitoyl-KRNNSRLGNGVLYASVN-NH2 (SMILES CCCCCCCCCCCCCCCC(=O)N[C@@H](CCCCN)C(=O)N[C@@H](CCCNC(=N)N)C(=O)N[C@@H](CC(N)=O)C(=O)N[C@@H](CC(N)=O)C(=O)N[C@@H](CO)C(=O)N[C@@H](CCCNC(=N)N)C(=O)N[C@@H](CC(C)C)C(=O)NCC(=O)N[C@@H](CC(N)=O)C(=O)NCC(=O)N[C@H](C(=O)N[C@@H](CC(C)C)C(=O)N[C@@H](Cc1ccc(O)cc1)C(=O)N[C@@H](C)C(=O)N[C@@H](CO)C(=O)N[C@H](C(=O)N[C@@H](CC(N)=O)C(N)=O)C(C)C)C(C)C) [peptide 13 (Pal-KRNNSRLGNGVLYASVN-NH2)]
0.1,0.4,Palmitoyl-RNNSRLGNGVLYASVN-NH2 (SMILES CCCCCCCCCCCCCCCC(=O)N[C@@H](CCCNC(=N)N)C(=O)N[C@@H](CC(N)=O)C(=O)N[C@@H](CC(N)=O)C(=O)N[C@@H](CO)C(=O)N[C@@H](CCCNC(=N)N)C(=O)N[C@@H](CC(C)C)C(=O)NCC(=O)N[C@@H](CC(N)=O)C(=O)NCC(=O)N[C@H](C(=O)N[C@@H](CC(C)C)C(=O)N[C@@H](Cc1ccc(O)cc1)C(=O)N[C@@H](C)C(=O)N[C@@H](CO)C(=O)N[C@H](C(=O)N[C@@H](CC(N)=O)C(N)=O)C(C)C)C(C)C) [peptide 14 (Pal-RNNSRLGNGVLYASVN-NH2)]
